Experimental data as given in paper PMC7494283.

Biological target: SARS-CoV-2 prefusion-stabilized S ectodomain trimer (SARS-CoV-2 | not stated) (UniProt P0DTC2)

S2X35 mAb (IgG1) (antibody) gave an SARS-CoV-2 pseudovirus neutralization IC50; hinders ACE2 binding of 0.5 µg/mL.
